Laboratory results taken from publication PMC4745047, “Tuned by metals: the TET peptidase activity is controlled by 3 metal binding sites” (Scientific Reports, 2016).

What was measured:
[1] = biological target: T1, PfTET3 (TET3 aminopeptidase; PfTET3Zn) (Pyrococcus furiosus, UniProt Q8TZW4); assay: Lys-pNA hydrolysis, pNA release at […] nm, EDTA titration, biphasic fit; format: biochemical; conditions: 85 °C; 5 mM Lys-pNA; 0.1 M HEPES pH 7.2, 316 mM KCl; 10 nM enzyme; metal chelation (M1 Zn2+ removal), not direct binding; first site of two; partial step; read-out: EC50_1
T1 construct: gene PF1861; Recombinant, pET-41c; purified as for PhTET3; homododecamer (about 500 kDa); as purified contains two Zn2+ per active site
T1 sequence (Q8TZW4 1-346): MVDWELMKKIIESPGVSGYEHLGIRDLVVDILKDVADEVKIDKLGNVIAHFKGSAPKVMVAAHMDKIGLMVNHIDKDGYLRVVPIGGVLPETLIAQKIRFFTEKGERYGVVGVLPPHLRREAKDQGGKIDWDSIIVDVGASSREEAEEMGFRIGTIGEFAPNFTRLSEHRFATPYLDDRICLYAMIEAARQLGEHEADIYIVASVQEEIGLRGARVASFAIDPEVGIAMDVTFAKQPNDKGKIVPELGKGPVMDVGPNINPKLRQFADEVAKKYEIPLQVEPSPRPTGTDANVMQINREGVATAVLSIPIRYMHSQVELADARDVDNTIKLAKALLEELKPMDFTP

[2] = biological target: Glu207 (UniProt position 207, VASVQEEIGLR); assay: kinetics; conditions: not given for the pH series (standard assay: KCl 316 mM), not given for the pH series (standard assay: 0.1 M HEPES pH 7.2)

Compound | EC50 [1] [µM] | pKa ([2]; 20 °C, PfTET3Co: 300 uM Co2+ present (Co2+ in M1 and M3, Zn2+ in M2)) | pKa ([2]; 20 °C, PfTET3Zn: as purified, Zn2+ in M1 and M2, no Co2+ added) | pKa ([2]; 85 °C, PfTET3Co: 300 uM Co2+ present (Co2+ in M1 and M3, Zn2+ in M2)) | pKa ([2]; 85 °C, PfTET3Zn: as purified, Zn2+ in M1 and M2, no Co2+ added)
O=C(O)CN(CCN(CC(=O)O)CC(=O)O)CC(=O)O [EDTA] | 13 |  |  |  | 
TET3 aminopeptidase (PfTET3; lysine-specific tetrahedral aminopeptidase) (Pyrococcus furiosus) |  | 5.6 | 5.9 | 4.45 | 4.75
